Test results reported in the supplement of paper PMC7125110.
± gives the standard error. Variants at the floor of the assay were thinned out.

B1: glmS ribozyme (parent)
chain: AUAAAAGCGCCAGAACUACAGAAAUGUAGUUGACGAGGAGGAGGUUUAUCGAAUUUUCGGCGGAUGCCUCCAAA

Experiments:
Conditions in all cases: with glucosamine-6-phosphate
glucosamine-6-phosphate [1] = variants of: B1; test: self-cleavage kobs at 640 uM GlcN6P; higher = faster cleavage; RNA array
Method in brief: (§1)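 E. coli RNA polymerase transcribed barcoded ribozyme variants in situ on sequenced MiSeq chips, which were tracked via a hybridised Cy3 probe at 37 °C. Tiles were imaged over ~14 h after glucosamine-6-phosphate (40 μM to 10 mM) in HEPES/KCl/Mg(OAc)2 buffer was flowed in. Normalised per-tile medians were fit to one- or two-exponential decays for kobs, and kcat and KM came from weighted Michaelis–Menten fits.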

glucosamine-6-phosphate [2] = variants of: B1; test: self-cleavage kobs at 2500 uM GlcN6P; higher = faster cleavage; RNA array
Method in brief: as §1

glucosamine-6-phosphate [3] = variants of: B1; test: self-cleavage kobs at 10000 uM GlcN6P; higher = faster cleavage; RNA array
Method in brief: as §1

glucosamine-6-phosphate [4] = variants of: B1; test: self-cleavage kobs at 160 uM GlcN6P; higher = faster cleavage; RNA array
Method in brief: as §1

Variant | self-cleavage kobs at 640 uM GlcN6P (glucosamine-6-phosphate [1]) [s⁻¹] | self-cleavage kobs at 2500 uM GlcN6P (glucosamine-6-phosphate [2]) [s⁻¹] | self-cleavage kobs at 10000 uM GlcN6P (glucosamine-6-phosphate [3]) [s⁻¹] | self-cleavage kobs at 160 uM GlcN6P (glucosamine-6-phosphate [4]) [s⁻¹]
A6G A39U C70A | < 1e-05 |  |  | 
A6U C34G U47G C67U C68A | 0.000407 ± 0.00013 | 8.02e-05 ± 2.6e-05 |  | 
A6U G40C G44C C50U | < 1e-05 | < 1e-05 |  | 
A6U A39C U56C C67G | < 1e-05 |  |  | 
A6G C50G C71G | 0.000369 ± 7.4e-05 | 9.48e-05 ± 2.2e-05 |  | 
G7U U31G C70A | 0.000541 ± 0.00017 |  |  | 
A6G G37A G41A | < 1e-05 | < 1e-05 | < 1e-05 | 
G7A G32C G51U | < 1e-05 |  |  | 
G7C U69A C70U | < 1e-05 |  |  | 
A6G G7U U31C A36C | < 1e-05 | < 1e-05 |  | 
G7C G9C A36G G51C | < 1e-05 |  |  | 
A6C G13C U47G A48U U65A | < 1e-05 |  |  | 
C58U C68G | 0.000137 ± 2.7e-05 | 8.11e-05 ± 2e-05 |  | 4.79e-05 ± 1.6e-05
A53U U54G U55A U56A |  |  |  | 0.000355 ± 7.8e-05
G7U C8A G13A | < 1e-05 |  |  | 
A6C U31C C70A | 7.34e-05 ± 3e-05 |  |  | 
A6U C16U U54A | 4.1e-05 ± 1.3e-05 | 0.000121 ± 3e-05 |  | 
C8A C11A G37U G41C A53C G63C | < 1e-05 | < 1e-05 |  | 
A6U G29A G37A G38A A42C G43U G62U C70U | < 1e-05 | < 1e-05 |  | 
U57A G60A |  |  |  | < 1e-05
G7U A39G U47C G59C | < 1e-05 |  |  | 
A6C U47C U54G | < 1e-05 |  |  | 
A6G A14C G38U | < 1e-05 |  | < 1e-05 | 

Variant | self-cleavage kobs at 640 uM GlcN6P (glucosamine-6-phosphate [1]) [s⁻¹] | self-cleavage kobs at 2500 uM GlcN6P (glucosamine-6-phosphate [2]) [s⁻¹] | self-cleavage kobs at 10000 uM GlcN6P (glucosamine-6-phosphate [3]) [s⁻¹] | self-cleavage kobs at 160 uM GlcN6P (glucosamine-6-phosphate [4]) [s⁻¹]
A6C A12C A39C C67U | < 1e-05 | < 1e-05 | < 1e-05 | 
A6C U45C G51C U65G C70G | < 1e-05 | < 1e-05 |  | 
A6C C16G G32U A33G G38U | < 1e-05 |  | < 1e-05 | 
A6U U31A G35U A42U G62U | < 1e-05 | < 1e-05 |  | 
A6U A15U G40U G43C | < 1e-05 |  |  | 
A6U G9C C16G C71U | < 1e-05 |  |  | 
C50U U56C C68U C70U |  |  |  | < 1e-05
A6G G37U U47G C50G C58G C67A | 7e-05 ± 2.9e-05 |  |  | 
G7U G9U U31A G37A A52C C67U U69C | < 1e-05 |  |  | 
C61G G62U | < 1e-05 | < 1e-05 |  | < 1e-05
G60A C68G | 7.21e-05 ± 1.6e-05 | 6.95e-05 ± 2.5e-05 |  | 8.43e-05 ± 3.9e-05
C50G G51A |  |  | < 1e-05 | < 1e-05
G7A A15G U30C A48G U57A | < 1e-05 | < 1e-05 |  | 
G7A G38C G59C | < 1e-05 |  |  | 
A6U U54C C68G U69G | 0.00033 ± 9.7e-05 |  |  | 
C50G G62U G66C C70A | 0.000118 ± 2.5e-05 |  |  | 7.6e-05 ± 1.6e-05
A6U G13U G37U A48U U69G | 9.26e-05 ± 2.7e-05 |  |  | 
G7A U31C A52G | < 1e-05 |  |  | 
C8A C11A G44A | < 1e-05 |  |  | 
A6U A12G G59C C67A | < 1e-05 |  |  | 
G51A U57C | < 1e-05 | < 1e-05 | < 1e-05 | < 1e-05
A6U G37A U54A | < 1e-05 |  |  | 
C8A A12C G13A | < 1e-05 |  |  | 

Variant | self-cleavage kobs at 640 uM GlcN6P (glucosamine-6-phosphate [1]) [s⁻¹] | self-cleavage kobs at 2500 uM GlcN6P (glucosamine-6-phosphate [2]) [s⁻¹] | self-cleavage kobs at 10000 uM GlcN6P (glucosamine-6-phosphate [3]) [s⁻¹] | self-cleavage kobs at 160 uM GlcN6P (glucosamine-6-phosphate [4]) [s⁻¹]
G7A C8A U65C | < 1e-05 | < 1e-05 |  | 
G7C C8G C10U C70G | 0.000355 ± 0.0001 |  |  | 
U55C C61U G63U | < 1e-05 | < 1e-05 |  | < 1e-05
G7U C67U C71G | 7.36e-05 ± 2.2e-05 |  |  | 
U55A C58U |  |  | 7.74e-05 ± 6.6e-06 | < 1e-05
C8A G29C A36C G63A | < 1e-05 |  |  | 
C8A G9A A15G A48C U57A G60A | < 1e-05 |  |  | 
U46G U55G G60C |  | < 1e-05 |  | < 1e-05
G7C C34A A42C C71U | < 1e-05 |  |  | 
C58G C70A | 4.04e-05 ± 1.9e-05 | 5.93e-05 ± 1.4e-05 |  | 0.000411 ± 0.00017
G7C C16U G32C G43A C50U | < 1e-05 |  |  | 
A6U A36C G38U U56C C67G C68G | 0.000412 ± 0.0001 | 0.000145 ± 4.4e-05 |  | 
A64U C68U | < 1e-05 |  |  | < 1e-05
A6G A53G C61A | < 1e-05 | < 1e-05 |  | 
A6U U31G C67G | < 1e-05 |  |  | 
G7U G29U A48C | < 1e-05 | < 1e-05 | < 1e-05 | 
U56C U57G C58A |  |  |  | 0.00183 ± 0.0009
A6U G40C C61U G62C | < 1e-05 |  |  | 
U54C U56A G59C U65A |  | < 1e-05 |  | < 1e-05
U56A G60C | < 1e-05 | < 1e-05 |  | < 1e-05
G7C U46C | < 1e-05 | < 1e-05 | < 1e-05 | 
